Values quoted from earlier work as cited in paper PMC8687316.

Biological target: p53 (Homo sapiens) (UniProt P04637)
Sequence (P04637 whole entry): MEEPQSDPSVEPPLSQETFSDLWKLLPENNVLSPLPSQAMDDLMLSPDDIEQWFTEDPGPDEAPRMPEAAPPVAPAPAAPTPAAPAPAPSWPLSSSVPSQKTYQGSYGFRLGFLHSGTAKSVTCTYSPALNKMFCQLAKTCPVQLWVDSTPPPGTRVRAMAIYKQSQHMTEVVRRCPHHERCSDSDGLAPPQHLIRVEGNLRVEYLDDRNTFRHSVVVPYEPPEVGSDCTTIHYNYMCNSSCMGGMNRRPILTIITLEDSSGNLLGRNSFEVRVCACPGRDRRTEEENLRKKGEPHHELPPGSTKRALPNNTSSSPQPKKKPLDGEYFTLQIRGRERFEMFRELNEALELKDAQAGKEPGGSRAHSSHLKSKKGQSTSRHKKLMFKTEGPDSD

Sequence of Mdm2 (Q00987 whole entry): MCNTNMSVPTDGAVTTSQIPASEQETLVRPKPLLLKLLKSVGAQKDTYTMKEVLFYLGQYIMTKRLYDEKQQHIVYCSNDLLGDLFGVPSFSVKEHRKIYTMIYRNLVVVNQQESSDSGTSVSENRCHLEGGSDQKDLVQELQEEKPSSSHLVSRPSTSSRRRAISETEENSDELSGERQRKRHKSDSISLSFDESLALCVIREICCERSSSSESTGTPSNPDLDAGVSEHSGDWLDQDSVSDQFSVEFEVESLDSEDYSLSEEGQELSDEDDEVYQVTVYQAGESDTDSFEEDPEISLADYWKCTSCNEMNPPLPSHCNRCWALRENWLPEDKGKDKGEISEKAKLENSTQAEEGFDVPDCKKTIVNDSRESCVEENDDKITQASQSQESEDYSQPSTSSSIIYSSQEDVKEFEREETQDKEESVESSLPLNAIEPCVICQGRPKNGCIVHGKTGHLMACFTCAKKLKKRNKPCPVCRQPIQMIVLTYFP

Kd: 1.44 nM
Substance: Mdm2 (from UniProt Q00987)
